Reference: the supplement of paper PMC12042874
± gives the uncertainty stated by the source.

experiment: amyloid nucleation score (Sup35N fusion, yeast selection) (log enrichment); library NNK1; higher = more nucleation; inactive = no reads after selection
Procedure, shortened: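 Peptides of 20 random codons fused to Sup35N were expressed in psi-negative yeast, induced 24 hours with 100 μM copper sulfate, then grown 7 days at 30°C on medium lacking adenine and uracil. Input and output plasmid inserts were Illumina-sequenced. Nucleation score is the DiMSum log enrichment of output over input reads, centred on the mode score of non-aggregating sequences, excluding sequences with under 100 input reads. Random libraries had three technical output replicates.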

Substance	amyloid nucleation score
SSVCFGYRAIGTIRHMFSKC	0.311 ± 0.33
SSWYVITATFIKDCGMTARR	4.03 ± 0.082
SSYCNLVASIL	0.649 ± 0.53
SSYFMVYYQRVTSCFMVGFL	-0.865 ± 0.48
STALLS	0.21 ± 0.74
STASQWQCHD	0.461 ± 0.41
STCNYLDSGGRDRCSFFNCD	0.078 ± 0.47
STDSLLRWIKPERDGYRFLW	-0.479 ± 0.45
STDVFYLV	-0.669 ± 0.39
STERKYLSLDKSWNVRLVLF	1.61 ± 0.23
STFAALNVKSCGVCLMWLLD	0.1 ± 0.84
STFGPCEVLVVQVDGPAYHT	-0.37 ± 0.55
STGPNLKVLVSSKS	-1.66 ± 0.69
STHSDGVGML	-0.805 ± 1.2
STNIGWAMINLKRYPVLRDA	-0.18 ± 0.29
STNWFNYSNGNTVWDIGDYL	0.4 ± 0.32
STVLATFHVE	0.041 ± 0.37
STVLQWIIGRPLYARDSLAS	-0.561 ± 0.6
STYSSWQDTRVFNLAMLSI	-0.68 ± 0.85
STYYVVRDFFLDSSTGTVYS	-0.031 ± 0.61
SVACPGLARMGRRSGREYNE	-1.46 ± 0.59
SVCTGRYPSRAHGEGASNTC	0.08 ± 0.66

Substance	amyloid nucleation score
SVDRMAYRMCMRNVRLNLCT	0.962 ± 0.37
SVGDVVYGEFLIAKQSAACV	0.115 ± 0.44
SVGFDDGPRSGTLNGFVSRR	-0.262 ± 0.6
SVINIGRNMISI	-0.353 ± 0.67
SVISRIKCRASRDGLHHGNH	0.862 ± 0.28
SVIVLFTIRRSWRPHSFRES	0.94 ± 0.32
SVLIRALFTFKLRSVERQDY	3.82 ± 0.069
SVMFQECFVNEFIGVHRCRD	6.324 ± 0.047
SVPQLVPNHFRVSWANHS	-0.05 ± 1.4
SVRSVRSNPRFTSHLPCSKK	-0.413 ± 0.54
SVRTCFNRYLKQVRVWSYAG	-0.165 ± 1.6
SVSMY	0.068 ± 0.27
SVTLCKFRKT	-0.197 ± 0.37
SVTLIGFILDLRTGHILWYK	-0.423 ± 0.62
SVVCVVSCYKIGAWLRAGG	0.648 ± 0.52
SVVIFHHTICLERDAVRQKF	5.02 ± 0.083
SVVMHSWLLLIVTSGSFMYV	0.218 ± 0.53
SVWCGSWVYNTLRLNMGTNL	3.01 ± 0.15
SVWNILLIV	0.665 ± 0.34
SWASKRCSPCCDGSGFPMYL	-1.37 ± 2.7
SWDLGREYSGHRMTCLVWLV	-0.403 ± 0.68
SWIRNRWHYTQ	-0.141 ± 0.72

Substance	amyloid nucleation score
SWLIRLSLYWYVNWSCMVGV	-0.009 ± 0.45
SWMCSPRACCLLTFNFECMC	-0.635 ± 0.5
SWNYLVTDAKRRDGGEERVR	-0.851 ± 1.7
SWRTCAPTWKVALFIWMCTS	3.39 ± 0.17
SWWPDGLNEMSG	1.11 ± 0.74
SYDISYDFWVNLVAGRLTSM	1.24 ± 0.6
SYEFVVRSWLSLYLINFKSS	inactive
SYGGGYTTSQGYGLGELTKY	0.543 ± 1.1
SYGMSYSVVWNWCECNSA	5.23 ± 0.053
SYGNCVRCSLMYKGKHMLNT	0.022 ± 0.52
SYKNVGRV	0.273 ± 0.86
SYKVTLVYSRHVVGVKVTRI	0.233 ± 0.86
SYLMY	-0.533 ± 0.9
SYMFWIPLATQWKRVLNRVW	-0.479 ± 0.54
SYMLVRDTLVLRCSACLLAG	inactive
SYNFWLRMAGRCSKM	-0.618 ± 0.6
SYNVMCVGYCIC	3.4 ± 0.12
SYRFFRGMMYLSHVIDLQSR	-0.307 ± 1.1
SYSIYALGSRLIVEYSYKWI	0.625 ± 0.39
SYTGHPMNDRWHIG	3.4 ± 0.074
